This is an account of results in PMC8532174.

The target of this data set is NS3h_2a(JFH1) helicase, wild type (Hepatitis C virus genotype 2a, isolate …, UniProt Q99IB8 1196-1661). The data set is described as follows: fluorescence polarization. On the technique in general: Fluorescence polarisation rises when a labelled molecule tumbles more slowly, as on binding a larger partner.
Chain of NS3h_2a(JFH1) helicase, wild type (Q99IB8 1196-1661): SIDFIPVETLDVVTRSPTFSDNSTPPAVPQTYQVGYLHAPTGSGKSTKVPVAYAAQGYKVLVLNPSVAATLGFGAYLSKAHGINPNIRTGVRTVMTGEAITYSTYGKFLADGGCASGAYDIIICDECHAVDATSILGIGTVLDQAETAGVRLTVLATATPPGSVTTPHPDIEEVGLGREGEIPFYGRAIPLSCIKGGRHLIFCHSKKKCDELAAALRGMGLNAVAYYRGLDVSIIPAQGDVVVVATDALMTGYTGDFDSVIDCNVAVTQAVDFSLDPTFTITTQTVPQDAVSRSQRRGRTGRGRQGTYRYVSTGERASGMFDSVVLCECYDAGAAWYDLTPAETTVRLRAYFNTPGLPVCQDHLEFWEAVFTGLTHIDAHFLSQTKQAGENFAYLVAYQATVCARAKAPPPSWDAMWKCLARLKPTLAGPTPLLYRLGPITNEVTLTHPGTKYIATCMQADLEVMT

B1: Cy5-dT15 (ssDNA)
DNA: TTTTTTTTTTTTTTT
On to B1, for which the binding result is on record as “binds”.
